Results as given in paper PMC4287557.

Target: JRFL SOSIP trimer (HIV-1 subtype B, truncated at residue 663), negatively selected (HIV-1 subtype B strain JRFL)

B1: PGV04 Fab (Fab, V domains shown)
VH: QVQLVQSGSGVKKPGASVRVSCWTSEDIFERTELIHWVRQAPGQGLEWIGWVKTVTGAVNFGSPDFRQRVSLTRDRDLFTAHMDIRGLTQGDTATYFCARQKFYTGGQGWYFDLWGRGTLIVVSS
VL: EIVLTQSPGTLSLSPGETASLSCTAASYGHMTWYQKKPGQPPKLLIFATSKRASGIPDRFSGSQFGKQYTLTITRMEPEDFARYYCQQLEFFGQGTRLEIR
B1 was tested, and the increase of the melting temperature (Tm) of the JRFL SOSIP-Fab complex over the trimer alone, DSF was 3.6 °C.
